The results in this text go back to the supplement of paper PMC9170038.

The subject of this series is MS2 coat protein. In words: apparent KD of MS2 coat protein; designed switch direction (-1 OFF switch, 1 ON switch): -1; higher = weaker reporter binding. The method in brief:
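The apparent KD reported per design is the median over clusters of curve fits to normalised cluster fluorescence. The RNA switches were transcribed on Illumina chips by stalled E. coli RNA polymerase. SNAP-549-labelled MS2 coat protein was titrated from 0.7 or 1.5 nM, doubling up to 3 µM, in Tris-HCl pH 7.5 buffer containing KCl, MgCl2, BSA, DTT, tRNA and Tween-20, with no input, 200 uM small-molecule ligand, or an oligonucleotide input.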

Where [1] appears, read: input ligand: microRNA oligo, concentration not stated.
Setting [2] is: Eterna round: R95, input ligand: FMN 200 uM.
The mark [3] stands for this setting: Eterna round: R95, input ligand: microRNA oligo, concentration not stated.
[4] abbreviates: Eterna round: R95, input ligand: none.

Consider “ACAUGAGGAUCACCCAUGUCCGGCUGGUCUGGUCCGGCUGUCGAGGAUAUAGUCCGGUGUUCGCGCUAGAAGGCGGGAGCUGGA [Aenatbe mod 50] (Eterna round: R96, puzzle: Exclusion NG 3)”, for which the “apparent KD of MS2 coat protein” value was found to be 144 nM (input ligand: FMN 200 uM), 62.2 nM under setting [1] and 85 nM (input ligand: none).

With “AAAUGCAAGUAAAGAUUCUACAUGAGGAUCACCCAUGUGCUCGUCUUAUAAAGUACUAUCACGAAAGUGAUAGUACA [Sensor 3, v1 - 35] (puzzle: Sensor v3, turn-off variant 1)”, the “apparent KD of MS2 coat protein” value turned out to be 14.2 nM under setting [2], 100 nM under setting [3] and 14.2 nM under setting [4].

In the case of “GCGUGGGCCGCAGGAUAUGAGGCCGUGGGUUCACCCAAACACACAUGAGGAUCACCCAUGUGUCAUCAGAAGGGCGAGCCUACU [Sozasora] (Eterna round: R96, puzzle: Exclusion NG 2)”, the “apparent KD of MS2 coat protein” value reads like this: (input ligand: FMN 200 uM) 18.9 nM; under setting [1], 17.5 nM; (input ligand: none) 21.4 nM.

As for “UAAUUGAUUAAUAGAUUAUACAUGAGGAUCACCCAUGUAGGUCCUACGUGCCAUUUAAGUAGCUCGUCUUAUUAUUA [Sensor-V1 #66] (Eterna round: R97, puzzle: Sensor, turn-off variant 1)”, the “apparent KD of MS2 coat protein” value runs as follows: (input ligand: FMN 200 uM) 40.2 nM; (input ligand: none) 46.5 nM.

In the case of “UCAAGUAUGUAGGAUAUGAUGUGAUUCUACAUAUCAGAAGGACGUACAUGAGGAUCACCCAUGUAACUUGCAUG [Exclusion 6 - B - 12:d] (puzzle: Exclusion 6)”, the “apparent KD of MS2 coat protein” value under setting [2] stood at 96.2 nM, the “apparent KD of MS2 coat protein” value under setting [3] is 33.1 nM and the “apparent KD of MS2 coat protein” value under setting [4] amounted to 32 nM.

Regarding “AAAAGGCAGGGAGGAUAUGCUUACCUGGGUCGUCUUCAAACAUGAGGAUCACCCAUGUAGUCGACGCAGAAGGCCCUCAAAGCC [Mat - Exclusion NG 2 - Mod of JL - D58] (Eterna round: R96, puzzle: Exclusion NG 2)”, the “apparent KD of MS2 coat protein” value stood at 39.6 nM (input ligand: FMN 200 uM), 21.2 nM under setting [1] and 22.7 nM (input ligand: none).

As to “AUAUAGUCAGGAUAUCGAAGUGUGUGUUGGUUUGUAAUUUACGAGAAGGGACAUGAGGAUCACCCAUGUAGGAA [JR_Exclusion4)Sub002] (Eterna round: R96, puzzle: Exclusion 4)”, the “apparent KD of MS2 coat protein” value is 49.3 nM (input ligand: FMN 200 uM), 33.8 nM under setting [1] and 44.1 nM (input ligand: none).

With “UGUAACCGAGGAUAUACAUGAGGAUCACCCAUGUAAUGUAGUAUAGUGUAUGUAAGAUGUAGAAGGUGGGAUGU (Eterna round: R97, puzzle: Exclusion 3)”, the “apparent KD of MS2 coat protein” value came out at 40.2 nM (input ligand: FMN 200 uM) and 45.7 nM (input ligand: none).

In the case of “UCACGGGACUGAGGAUAUACAUCAACAAUGGUUGUAGAAGGCAGAAGGUUGAAUCAUAUACAAAACAUGAGGAUCACCCAUGUA [JR_ExcNG1_Sub032] (Eterna round: R96, puzzle: Exclusion NG 1)”, the “apparent KD of MS2 coat protein” value reads like this: (input ligand: FMN 200 uM) 23 nM; under setting [1], 23.8 nM; (input ligand: none) 26.2 nM.

In the case of “CUAUUCCGAGGAUAUACAUGAGGAUCACCCAUGUCGGGCCUCUGCGUUUAGCGCGAAAGUAGAAGGUGGGUUUC [JL Riri mod 9] (puzzle: Exclusion 3)”, the “apparent KD of MS2 coat protein” value under setting [3] was 28.3 nM.

“UCGUGUCGAGAGGAUAUCUAGGACACCCUUCCAAGAGAAGGCUUGACAUGAGGAUCACCCAUGUACGGGUAAAU [EX6 A.9] (Eterna round: R97, puzzle: Exclusion 6)”: the “apparent KD of MS2 coat protein” value reads like this: (input ligand: FMN 200 uM) 25.6 nM; (input ligand: none) 39.9 nM.

As to “AAAAUGUAAGGAUAUCGUUCACUUGACAAAAGUCAAGUGAACGAGAAGGUACAUGAGGAUCACCCAUGUAUGGG [-29.9, -29 kcal, A 38%] (Eterna round: R97, puzzle: Exclusion 4)”, the “apparent KD of MS2 coat protein” value by setting is: (input ligand: FMN 200 uM) 131 nM; (input ligand: none) 1340 nM.

With “GGUUGGCGAGGAUAUACAUGAGGAUCACCCAUGUGAGAAAGAAAAGUGAGGAAGAAAAGUAGAAGGCGCUGACG [Mat - Exclusion 3 - Mod of Salish D2] (puzzle: Exclusion 3)”, the “apparent KD of MS2 coat protein” value reads like this: under setting [2], 583 nM; under setting [3], 53.4 nM; under setting [4], 99.8 nM.

Take “CUUUUGUGAGGAUAUCGGUAGUAAUACAAUAGUAUUACUACUGAGAAGGCACAUGAGGAUCACCCAUGUUCCUC [Ex4 344 Omei mod 9] (puzzle: Exclusion 4)”: the “apparent KD of MS2 coat protein” value under setting [3] was 43 nM.

For “AAGGAUAGAGGAUAUACAUAGAUACAGAUUCAUGUAGAACUACAUGAGGAUCACCCAUGUAGAAGGCUAUCCUA [Mat - Same state - Mayanna Mod - D121] (Eterna round: R96, puzzle: Exclusion 2)”, the “apparent KD of MS2 coat protein” value was determined as 316 nM (input ligand: FMN 200 uM), 24.8 nM under setting [1] and 33.3 nM (input ligand: none).

On to “CCUAUGUGAGGAUAUCACUGGUCUUUUCAUUAGAUGAUCAGUGAGAAGGCACAUGAGGAUCACCCAUGUCAGUG [Ex4 - 3 - 53] (Eterna round: R96, puzzle: Exclusion 4)”, for which the “apparent KD of MS2 coat protein” value (input ligand: FMN 200 uM) was found to be 48 nM, the “apparent KD of MS2 coat protein” value under setting [1] is 59.7 nM and the “apparent KD of MS2 coat protein” value (input ligand: none) was 110 nM.

With “AAGUACCGUCACGAUAGUGAUGGUACAGCAAGCAGUGAAACAUGAGGAUCACCCAUGUCCUCAAUUGCUCGUCUUAU [Sensor 3 - 78] (puzzle: Sensor v3, turn-off variant 2)”, the “apparent KD of MS2 coat protein” value reads like this: under setting [2], 43.3 nM; under setting [3], 211 nM; under setting [4], 44.5 nM.

For the sequence “AAUAUUUUAGGAUAUGGCGGAAUAGACAUGAGGAUCACCCAUGUUAGAGGCGUGGUGAAGUUAGAAGGGAGGUGUU [Eternabot (L1) Solution 6] (Eterna round: R97, puzzle: Exclusion 5)”, the “apparent KD of MS2 coat protein” value was found to be 60 nM (input ligand: FMN 200 uM) and 113 nM (input ligand: none).

In the case of “GGCGGACAUGAGGAUCACCCAUGUCAGGAUAUUAGGCGAUCGUCGAUAGACGAUAGCCUGAGAAGGGACGCGCC [Mat - Exclusion 1 - Eli Mod - D13] (Eterna round: R97, puzzle: Exclusion 1)”, the “apparent KD of MS2 coat protein” value amounted to 18.6 nM (input ligand: FMN 200 uM) and 17.7 nM (input ligand: none).

Consider “UAUAUAUAGUAAGGAUAUGUAUUAAUUGUAUAAACAGAAGGUACUGACAUGAGGAUCACCCAUGUUUUAGUGUGGGCAUGUAGA [JMF's solution 81] (Eterna round: R96, puzzle: Exclusion NG 1)”, for which the “apparent KD of MS2 coat protein” value under setting [1] is 71.7 nM.

As to “GGUCCGAGUGUGAGGAUAUGCUGGUCCUUGGAUCAGCAGAAGGCACAUGAGGAUCACCCAUGUGGUGUCGGACC [Mat - Exclusion 4 - Eli Mod - D32] (Eterna round: R97, puzzle: Brourd's mod of Exclusion 4)”, the “apparent KD of MS2 coat protein” value is 140 nM (input ligand: FMN 200 uM) and 932 nM (input ligand: none).

Regarding “CGAUCGGAAGGAUAUACACCUCACGUCAAACGGACAACCGGACAUGAGGAUCACCCAUGUAGAAGGUCCAAAAU [Tetixeve] (puzzle: Exclusion 2)”, under setting [3], the “apparent KD of MS2 coat protein” value was 55.7 nM.

For the sequence “GUAGUGUUAGGAUAUCUGCCUCCGAGGUAUUCCAUGAAUAGAGAGAAGGGACAUGAGGAUCACCCAUGUGGGUA [Eternabot (L2) Solution 92] (Eterna round: R97, puzzle: Exclusion 4)”, the “apparent KD of MS2 coat protein” value is, setting by setting: (input ligand: FMN 200 uM) 90.5 nM; (input ligand: none) 295 nM.
